The text below walks through data of patent US20210347842A1 (Eli Lilly, published 2021).

One may read the Kd as the constant that tells how readily two partners part at equilibrium.

The target of assay [1] is T1, human PD-1 (human, UniProt Q15116 21-170). As to the kind of experiment: not stated in the sentence (BLI named in the next sentence), 25 C; 25 C; stated bound in the text.
The target of assay [2] is T1, human PD-1. As to the kind of experiment: bio-layer interferometry (BLI). A general note: Biolayer interferometry detects binding as a change in optical thickness at a sensor tip.
For another assay, the target named is T2, cynomolgus monkey PD-1 (cynomolgus monkey, UniProt B0LAJ3 25-170).
T2 construct: construct not described; also called cynomologous monkey PD-1
T2 sequence (B0LAJ3 entry or part of it limits assumed): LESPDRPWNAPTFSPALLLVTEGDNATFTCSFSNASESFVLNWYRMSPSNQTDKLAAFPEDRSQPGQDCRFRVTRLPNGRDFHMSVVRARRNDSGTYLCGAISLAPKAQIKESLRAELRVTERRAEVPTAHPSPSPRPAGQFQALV
As to the kind of experiment: not stated in the sentence (BLI named in the next sentence), 25 C.

Bounds are passed on as bounds.

T1 sequence (Q15116 21-170 limits assumed, form in doubt): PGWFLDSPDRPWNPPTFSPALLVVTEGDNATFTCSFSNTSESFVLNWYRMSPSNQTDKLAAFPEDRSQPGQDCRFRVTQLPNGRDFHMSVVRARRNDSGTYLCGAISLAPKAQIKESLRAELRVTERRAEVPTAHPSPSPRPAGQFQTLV

B1: AM0001 (antibody, human IgG4 S228P, lambda, V domains shown)
VH: EVQLLESGGGLVQPGGSLRLSCPASGFTFSSYAMSWVRQAPGKGLGWVSDISGGGGTTYYADSVKGRFTISRDNSKNTLYLQMNSLRGEDTAVYYCAKSGTVVTDFDYWGQGTLVTVSS
VL: SYVLTQPPSVSVAPGQTARVTCGGNSIGSYSVHWYQQKPGQAPVLVVYDDSDRPSGIPERFSGSNSGNTAALTISRVEAGDEADYYCQVWDTSSYWVFGGGTKLTVLG
notes: Monoclonal antibody with lambda 2 light chain and hinge-stabilized IgG4 (S228P) heavy chain; also called PD1-antagonist antibody
With B1, the Kd was not above 10 pM with human PD-1 [1], less than 1 pM in the assay with human PD-1 [2] and not above 10 pM in the assay with cynomolgus monkey PD-1.
